In a protein production outcome set (Wang et al. 2014):

Experiment: label from the status in PepcDB records
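Also: failed if final PepcDB status was selected cloned or expressed and not failed if soluble or beyond.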

Sequence	protein production
MIKTSPPMNKLKLNIALSAFFFALVGCQSMPNDPVDIKADLDASIKETKRLNGPKALTQVPNSVQQELMLNNMDQAKQGMLAEKRLEVSATEVDAKDFFQAIVRGSRYNVVIHPDVTGQISLSLNNVTLSEALTVVEDVYGYEIIRRGNVVKVFPPGIRTETIALNYLFLKRFGSSSTTINSGGVSENDPNSGNSSNGNSSNSNNSNSGSNNNQSGNNGSSNQNSGINLYTENESNFWDELKESLTAFVGTGEGRSVIVSPQAGLVTVRALPQELTAVKKFITATESHLHRQVIIEAKIMEVTLNDDFQQGIKWNKVLDQVGSADIIYSTTGNVVGNVISNTIGGVNSINFSKQTSGSDFSGVIELLQTQGNVQVLSSPRITATNNQKAVIKVGEDEYFVTEVSSTTTTGTSTTTTPEVELTPFFSGIALDVTPQISKDGSVILHVHPSVTITEEQSKTIKIGDTTLVLPLAQSSVRESDTIIRANSGEVVVIGGLIETYNIDIESKTPILGDIPYLGELFKNKSQKSQKRELVIMLKPIVVGQDTWKNQLQDARSLLTKWFPEEVDACELSNDGTLTQECQAQCADAEYATEHGVCQMAAQNAASNDN	failed
MFIPQIVPIRDLKNTSAISNLCHKTNEPIFITKNGYGDMVIMSMETYEGNAFFNNLYGNLEEAEMDLQNGRVSGIDEAIEEIKSRYDL	failed
MDVGVVRPQRTEAGWDGGVAPRAGPTRRREACTAYVQRVAGGSGLPEGSSGSEPGPGRSRERPGDAAGGSGNAGCCACPVVSETGGDWLTDSTNRAFSVPGDFQGRRQAEGKTQKVRVQSTGKVPPFPVMKLQVLVLLMSWFGVLSWVQAEFFTSIGHMTDLIYAEKDLVQSLKEYILAEEAKLSKIKSWASKMEALTSKSAADPEGYLAHPVNAYKLVKRLNTDWPALGDLVLQDAAAGFVANLSVQRQFFPTDEDESGAARALMRLQDTYKLDPDMISRGELPGTKYQAMLSVDDCFGMGRSAYNEGDYYHTVLWMEQVLKQLDAGEEATVTKSLVLDYLSYAVFQLGDLHRAVELTRRLLSLDPSHERAGGNLRYFERLLEEERGKSLSNQTDAGLASQENLYERPVDYLPERDVYESLCRGEGIKMTPRRQKRLFCRYHHGNRVPQLLIAPFKEEDEWDSPHIVRYYDVMSDEEIERIKEIAKPKLARATVRDPKTGVLTVASYRVSKSSWLEEDDDPVVARVNRRMQHITGLTVKTAELLQVANYGMGGQYEPHFDFSRSDERDAFKRLGTGNRVATFLNYMSDVEAGGATVFPDLGAAIWPKKGTAVFWYNLLRSGEGDYRTRHAACPVLVGCKWVSNKWFHERGQEFLRPCGTTEVD	failed
MSQRTSEENRYEQLHRFAAKIHSTMQIDDVLEEIICTLQNVYPAFTYHLLLSHDNHVCGNLPIKTLALDESEGQPAALRAFLTGQVQCEETAAPPRSVLYAPIKGVQAVYGVIQIIAPYAAPFPKREINFISLLAGTAGRALENAKLYEQSRRLEHHHHHH	not failed
MKIIIVGGGVTGSELARRLIRKKHDVVLIERDEETARHAANRLDCMVVQAAGNDTQILLDAGIKKAEAMIAVTDSDELNMIICGIADSLAPQVIKIARVRNEDYVKALNFSEERTLGINALVYPDEEAALAVIQAIEHGAVSDILSFENSSYELSRFNVCEKSTLDGLAVFDIRKYVDIPFIVVSVEQNGKNRIPSGDTILTAGTRVSILTKPEHIKRFYELSGFETQEFKKIALVGMGRIGKSIAEYLLKNSKGKSFLSKLLPINLNQKWKISIIETNDKKAKEVAAEFPEASIYKADVTDESFVDEIGLDSFDLVICTTPNYEFNMIACAYLKTLGVYKTISLVQSAVLENVAYKIGVDVAVSFKDVVVDSIMSHLVSENVTSVHTMGDGKLEIIELQVSEKSPVLGQKLKDISQHGVYLVLLVTDENGEQIPTGDTEVKAGYKIVFIVKSSRSDEIIKIFGGN	failed
MAMVSGRRSTLNPDAPLFIPAAVRQVEDFSPEWWQLVTTSTWYPDYWISQQQQGADGFYDNGENENGGGHIDVADLLPESFDFDDMEDFFDTDAAEFDQGFDGRMYYQAPSEFGFGKNGEMVKKSSGNRSPRSIVEPAKYAEKPAKWGNQRVAAAPRNIHQPR	failed
MGLPLVLDFDLYFCLMKCFIHQQLHLKVGYRLTERFVKTFGEERDGVWFYPRPEDIAARSYDDLRALQLSRRKAEYIVDVSRLIADGTLRLDDLEQMEDGEVMERLTAIRGIGPWTVQNFLLFGLEHHHHHH	failed
MLAIFQKAFAHPPEELNSPASHFSGKTPKLPGETLSDFLSHHQNNAFSMNFGDSAVLAYARQETSLRQRLFCGLDGIYCMFLGRLNNLCTLNRQYGLSGKNSNEAMFVIEAYRTLRDRGPYPADQVLRGLEGSFAFVVYDTQTSSVFSALSSDGGESLYWGISGDGSVVMSDDIQIIKQGCAKSFAPFPNGCMFHSETGLKSFDHPTNMMKAMPRIDSEGVLCGASFKVDACSKINSIPRRGSEANWALANSR	failed
